Test results from paper PMC8134030 (Biochemistry and Biophysics Reports, 2021).
Positions count from the first letter of the chain named. Each block holds one binder with its values, some of them ahead of it.

Columns and labels:
Experiment in all cases: pull-down
MBP:Ncd^CTm = target: T1, MBP:Ncd^CTm (Drosophila, UniProt P20480 333-700)
T1 sequence (looked up): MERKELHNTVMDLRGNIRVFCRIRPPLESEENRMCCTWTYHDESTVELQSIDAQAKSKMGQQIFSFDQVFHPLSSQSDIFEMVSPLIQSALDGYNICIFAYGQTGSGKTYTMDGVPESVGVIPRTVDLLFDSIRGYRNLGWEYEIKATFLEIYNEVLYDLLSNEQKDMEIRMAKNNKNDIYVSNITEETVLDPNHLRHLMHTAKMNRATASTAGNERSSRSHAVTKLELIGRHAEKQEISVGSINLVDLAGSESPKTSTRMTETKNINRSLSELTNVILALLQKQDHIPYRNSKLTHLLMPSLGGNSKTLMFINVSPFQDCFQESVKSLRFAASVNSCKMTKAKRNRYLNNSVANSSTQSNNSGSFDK

MBP:Ncd^CTm3A = target: T2, MBP:Ncd^CTm3A (Drosophila, UniProt P20480 333-700, H619A | R623A | H629A)
T2 sequence (looked up): T1 sequence (looked up) with H287A, R291A, H297A

MBP:Ncd^FL = target: T3, MBP:Ncd^FL (Drosophila, UniProt P20480 1-700)
T3 sequence (looked up): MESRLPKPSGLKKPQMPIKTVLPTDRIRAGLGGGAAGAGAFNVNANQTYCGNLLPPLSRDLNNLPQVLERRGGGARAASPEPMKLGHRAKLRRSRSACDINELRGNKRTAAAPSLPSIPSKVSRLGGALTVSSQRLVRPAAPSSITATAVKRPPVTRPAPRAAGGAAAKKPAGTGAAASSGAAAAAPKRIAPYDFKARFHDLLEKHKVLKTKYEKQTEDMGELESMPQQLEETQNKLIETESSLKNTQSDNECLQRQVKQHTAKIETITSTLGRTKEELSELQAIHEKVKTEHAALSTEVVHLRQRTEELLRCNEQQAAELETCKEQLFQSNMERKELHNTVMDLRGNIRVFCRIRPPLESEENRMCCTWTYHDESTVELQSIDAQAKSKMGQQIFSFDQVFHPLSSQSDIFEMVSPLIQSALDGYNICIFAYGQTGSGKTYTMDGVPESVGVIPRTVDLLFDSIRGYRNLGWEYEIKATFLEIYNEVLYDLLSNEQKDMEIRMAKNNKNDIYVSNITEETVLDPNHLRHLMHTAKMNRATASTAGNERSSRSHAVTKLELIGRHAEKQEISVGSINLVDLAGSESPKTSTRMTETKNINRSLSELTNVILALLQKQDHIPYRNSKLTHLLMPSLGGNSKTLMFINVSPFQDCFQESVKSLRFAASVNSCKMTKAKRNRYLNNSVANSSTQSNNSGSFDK

Kd (MBP:Ncd^CTm): ~2000 nM
fold reduction in binding affinity against WT (MBP:Ncd^CTm3A): ~10 fold
B1: Ncd^nMBD, soluble untagged prey (domain or fragment, Drosophila, UniProt P20480 1-204, looked up)
chain: MESRLPKPSGLKKPQMPIKTVLPTDRIRAGLGGGAAGAGAFNVNANQTYCGNLLPPLSRDLNNLPQVLERRGGGARAASPEPMKLGHRAKLRRSRSACDINELRGNKRTAAAPSLPSIPSKVSRLGGALTVSSQRLVRPAAPSSITATAVKRPPVTRPAPRAAGGAAAKKPAGTGAAASSGAAAAAPKRIAPYDFKARFHDLLE

binding result (MBP:Ncd^FL): binds
B2: Ncd^CTm, soluble untagged prey (domain or fragment, Drosophila, UniProt P20480 333-700, looked up)
chain: T1 sequence (looked up)
